B1: scFv; the commonest letter at each place (parent)
chain 1: EVKLDETGGGLVQPGRPMKLSCVASGFTFSDYWMNWVRQSPEKGLEWVAQIRNKPYNYETYYSDSVKGRFTISRDDSKSSVYLQMNNLRVEDMGIYYCTGSYYGMDYWGQGTSVTVS
chain 2: DVVMTQTPLSLPVSLGDQASISCRSSQSLVHSNGNTYLRWYLQKPGQSPKVLIYKVSNRFSGVPDRFSGSGSGTDFTLKISRVEAEDLGVYFCSQSTHVPWTFGGGTKLEIK

What was measured:
fluorescein = variants of: B1; test: Kd (Tite-Seq); conditions: with fluorescein; format: scFv 4-4-20, heavy + light
[1] = variants of: B1; test: yeast surface expression (ratio to wild type); higher = more expressed; conditions: format: scFv 4-4-20, heavy + light

Variant | Kd (fluorescein) [nM] | yeast surface expression [1]
chain 1 EVKLDETGGGLVQPGRPMKLSCVASGFTFSDYWMNWVRQSPEKGLEWVAQIRNKPYNYETYYSDSVKGRFTISRDDSKSSVYLQMNNLRVEDMGIYYCTGSSYGMDYTGQGTSVTVS chain 2 DVVMTQTPLSLPVSLGDQASISCRSSQSLVHSNGNTYLRWYLQKPGQSPKVLIYKVSNRFSGVPDRFSGSGSGTDFTLKISRVEAEDLGVYFCSQSTHVPWTFGGGTKLEIK [chain 1 Y102S W108T] | ≤ 0.316 | 0.599
chain 1 EVKLDETGGGLVQPGRPMKLSCVASGFTFSDYWMNWVRQSPEKGLEWVAQIRNKPYNYETYYSDSVKGRFTISRDDSKSSVYLQMNNLRVEDMGIYYCTGSSCGMDYWGQGTSVTVS chain 2 DVVMTQTPLSLPVSLGDQASISCRSSQSLVHSNGNTYLRWYLQKPGQSPKVLIYKVSNRFSGVPDRFSGSGSGTDFTLKISRVEAEDLGVYFCSQSTHVPWTFGGGTKLEIK [chain 1 Y102S Y103C] | 12.5 | 0.707
chain 1 EVKLDETGGGLVQPGRPMKLSCVASGFTFSDYWMNWVRQSPEKGLEWVAQIRNKPYNYETYYSDSVKGRFTISRDDSKSSVYLQMNNLRVEDMGIYYCTGSSSGMDYWGQGTSVTVS chain 2 DVVMTQTPLSLPVSLGDQASISCRSSQSLVHSNGNTYLRWYLQKPGQSPKVLIYKVSNRFSGVPDRFSGSGSGTDFTLKISRVEAEDLGVYFCSQSTHVPWTFGGGTKLEIK [chain 1 Y102S Y103S] | 21 | 1.1
chain 1 EVKLDETGGGLVQPGRPMKLSCVASGFTFSDYWMNWVRQSPEKGLEWVAQIRNKPYNYETYYSDSVKGRFTISRDDSKSSVYLQMNNLRVEDMGIYYCTGSSYGMDRWGQGTSVTVS chain 2 DVVMTQTPLSLPVSLGDQASISCRSSQSLVHSNGNTYLRWYLQKPGQSPKVLIYKVSNRFSGVPDRFSGSGSGTDFTLKISRVEAEDLGVYFCSQSTHVPWTFGGGTKLEIK [chain 1 Y102S Y107R] | 2.51 | 0.667
chain 1 EVKLDETGGGLVQPGRPMKLSCVASGFTFSDYWMNWVRQSPEKGLEWVAQIRNKPYNYETYYSDSVKGRFTISRDDSKSSVYLQMNNLRVEDMGIYYCTGSSYGMDWWGQGTSVTVS chain 2 DVVMTQTPLSLPVSLGDQASISCRSSQSLVHSNGNTYLRWYLQKPGQSPKVLIYKVSNRFSGVPDRFSGSGSGTDFTLKISRVEAEDLGVYFCSQSTHVPWTFGGGTKLEIK [chain 1 Y102S Y107W] | 1.28 | 0.747
chain 1 EVKLDETGGGLVQPGRPMKLSCVASGFTFSDYWMNWVRQSPEKGLEWVAQIRNKPYNYETYYSDSVKGRFTISRDDSKSSVYLQMNNLRVEDMGIYYCTGSTYGMDYWGQGTSVTVS chain 2 DVVMTQTPLSLPVSLGDQASISCRSSQSLVHSNGNTYLRWYLQKPGQSPKVLIYKVSNRFSGVPDRFSGSGSGTDFTLKISRVEAEDLGVYFCSQSTHVPWTFGGGTKLEIK [chain 1 Y102T] | 8.94 | 0.932
chain 1 EVKLDETGGGLVQPGRPMKLSCVASGFTFSDYWMNWVRQSPEKGLEWVAQIRNKPYNYETYYSDSVKGRFTISRDDSKSSVYLQMNNLRVEDMGIYYCTGSTYGMPYWGQGTSVTVS chain 2 DVVMTQTPLSLPVSLGDQASISCRSSQSLVHSNGNTYLRWYLQKPGQSPKVLIYKVSNRFSGVPDRFSGSGSGTDFTLKISRVEAEDLGVYFCSQSTHVPWTFGGGTKLEIK [chain 1 Y102T D106P] | ≥ 10000 | 0.351
chain 1 EVKLDETGGGLVQPGRPMKLSCVASGFTFSDYWMNWVRQSPEKGLEWVAQIRNKPYNYETYYSDSVKGRFTISRDDSKSSVYLQMNNLRVEDMGIYYCTGSTYWMDYWGQGTSVTVS chain 2 DVVMTQTPLSLPVSLGDQASISCRSSQSLVHSNGNTYLRWYLQKPGQSPKVLIYKVSNRFSGVPDRFSGSGSGTDFTLKISRVEAEDLGVYFCSQSTHVPWTFGGGTKLEIK [chain 1 Y102T G104W] | ≥ 10000 | 0.638
chain 1 EVKLDETGGGLVQPGRPMKLSCVASGFTFSDYWMNWVRQSPEKGLEWVAQIRNKPYNYETYYSDSVKGRFTISRDDSKSSVYLQMNNLRVEDMGIYYCTGSTYGKDYWGQGTSVTVS chain 2 DVVMTQTPLSLPVSLGDQASISCRSSQSLVHSNGNTYLRWYLQKPGQSPKVLIYKVSNRFSGVPDRFSGSGSGTDFTLKISRVEAEDLGVYFCSQSTHVPWTFGGGTKLEIK [chain 1 Y102T M105K] | 7.08 | 0.849
chain 1 EVKLDETGGGLVQPGRPMKLSCVASGFTFSDYWMNWVRQSPEKGLEWVAQIRNKPYNYETYYSDSVKGRFTISRDDSKSSVYLQMNNLRVEDMGIYYCTGSTCGMDYWGQGTSVTVS chain 2 DVVMTQTPLSLPVSLGDQASISCRSSQSLVHSNGNTYLRWYLQKPGQSPKVLIYKVSNRFSGVPDRFSGSGSGTDFTLKISRVEAEDLGVYFCSQSTHVPWTFGGGTKLEIK [chain 1 Y102T Y103C] | 24.5 | 0.784
chain 1 EVKLDETGGGLVQPGRPMKLSCVASGFTFSDYWMNWVRQSPEKGLEWVAQIRNKPYNYETYYSDSVKGRFTISRDDSKSSVYLQMNNLRVEDMGIYYCTGSTRGMDYWGQGTSVTVS chain 2 DVVMTQTPLSLPVSLGDQASISCRSSQSLVHSNGNTYLRWYLQKPGQSPKVLIYKVSNRFSGVPDRFSGSGSGTDFTLKISRVEAEDLGVYFCSQSTHVPWTFGGGTKLEIK [chain 1 Y102T Y103R] | ≥ 10000 | 1.21
chain 1 EVKLDETGGGLVQPGRPMKLSCVASGFTFSDYWMNWVRQSPEKGLEWVAQIRNKPYNYETYYSDSVKGRFTISRDDSKSSVYLQMNNLRVEDMGIYYCTGSTWGMDYWGQGTSVTVS chain 2 DVVMTQTPLSLPVSLGDQASISCRSSQSLVHSNGNTYLRWYLQKPGQSPKVLIYKVSNRFSGVPDRFSGSGSGTDFTLKISRVEAEDLGVYFCSQSTHVPWTFGGGTKLEIK [chain 1 Y102T Y103W] | 7.85 | 0.819

Reference: the FLAb antibody collection (doi:10.7554/elife.23156)
